B1: RUN and FYVE domain-containing protein 1, residues 639 to 698; numbered along this chain, Q96T51 (parent)
chain: WLKDDEATHCRQCEKEFSISRRKHHCRNCGHIFCNTCSSNELALPSYPKPVRVCDSCHTL

Variants of: B1
Assay: abundance fitness (aPCA) (normalised: wild type 0, dead -1); higher = more abundant; growth selection in yeast, the domain comes from the species named
Conditions: Homo sapiens

Abundance fitness of substitutions, site by site:
C26: K -0.677, Y -0.77, P -0.508, S -0.636, T -0.832, M -0.76, N -0.418, F -0.89, L -0.763, R -0.804, Q -0.855, H -0.628, W -0.748, A -0.694, D -0.794, V -0.913, G -0.709, I -0.866, E -0.655
H25: R 0.151, Q 0.169, T -0.118, S 0.07, E -0.02, D -0.176, V 0.044, Y 0.097, P -0.065, C -0.169, M 0.051, A 0.121, I -0.13, N -0.311, K 0.012, F -0.045, W 0.128
R21: F -0.265, V -0.054, K -0.184, N -0.711, C -1.14, T 0.13, D -1.25, Y -0.801, L -0.195, A -0.04, M -0.239, W -1.06, H -0.434, Q -0.069, P -0.503, S -0.355, I -0.227, G -0.278
S20: C -0.369, Q 0.138, P -0.061, H -0.108, A 0.068, L -0.147, V -0.031, E 0.197, D 0.13, W 0.005, Y -0.195, I 0.028, T 0.069, K -0.018, F -0.009
R27: T 0.095, E 0.085, D 0.072, P 0.219, C -0.067, I -0.077, F 0.176, Q 0.112, G 0.153, M 0.019, L 0.069, S -0.003, N 0, H 0.316, A 0.189, K 0.04
R22: S -0.32, P -0.303, A -0.102, T -0.066, Q -0.1, C -0.494, M 0.109, Y -0.356, N -0.24, I -0.1, H -0.854, W -0.18, D -0.141, V 0, E 0.014, L -0.098
K23: L -0.433, H -0.326, G -0.034, N -0.491, W -0.243, E -0.165, P -0.494, T -0.204, S -0.189, I -0.207, Q -0.261, D -0.315, R -0.069, Y -0.575, F -0.362, V -0.257, M -0.137, C -0.176
I19: L -0.038, R -0.065, D -0.014, W -0.846, F -0.136, C -1.15, Q 0.094, Y -0.341, E 0.228, A -0.177, S -0.048, K 0.073, P -0.034, T 0.095, V -0.102, N -0.001, H -0.036, M -0.006
S18: I -0.144, Q -0.256, W -0.322, H -0.408, M -0.23, T 0.05, K -0.087, N -0.12, P -0.398, G -0.049, L -0.423, V -0.247, Y -0.501
H24: S -0.284, L -0.458, R -0.378, I -0.443, G -0.515, P -0.97, E 0.051, M -0.148, Q -0.293, N -0.256, W -0.282, D -0.251, T -0.146, F -0.351, C -0.135, V -0.166, A -0.266

Reference: the Human Domainome abundance scans (Beltran et al. 2025)
